Legend:
[1] = tested on: EcFadR (Escherichia coli); experiment: SPR; details: SPR: 20 mM Tris-HCl pH 7.5, 200 mM NaCl, 0.005% Tween 20, 25 C, protein 31.25-1000 nM; EMSA: binding buffer composition not given, room temperature, 5 pmol …
[2] = tested on: ValFadR (Vibrio alginolyticus); experiment: SPR; details: SPR: 20 mM Tris-HCl pH 7.5, 200 mM NaCl, 0.005% Tween 20, 25 C, protein 31.25-1000 nM; EMSA: binding buffer composition not given, room temperature, 5 pmol …

fabA probe (SPR)
Kd [1]: 559 nM | Kd [2]: 258 nM
